Substitutions are numbered along the chain they refer to. Numbers in names are those of the source.
B1: human prolyl 3-hydroxylase 1 (P3H1) (enzyme, UniProt Q32P28-1 23-736, looked up)
chain: EVESEAGWGMVTPDLLFAEGTAAYARGDWPGVVLSMERALRSRAALRALRLRCRTQCAADFPWELDPDWSPSPAQASGAAALRDLSFFGGLLRRAACLRRCLGPPAAHSLSEEMELEFRKRSPYNYLQVAYFKINKLEKAVAAAHTFFVGNPEHMEMQQNLDYYQTMSGVKEADFKDLETQPHMQEFRLGVRLYSEEQPQEAVPHLEAALQEYFVAYEECRALCEGPYDYDGYNYLEYNADLFQAITDHYIQVLNCKQNCVTELASHPSREKPFEDFLPSHYNYLQFAYYNIGNYTQAVECAKTYLLFFPNDEVMNQNLAYYAAMLGEEHTRSIGPRESAKEYRQRSLLEKELLFFAYDVFGIPFVDPDSWTPEEVIPKRLQEKQKSERETAVRISQEIGNLMKEIETLVEEKTKESLDVSRLTREGGPLLYEGISLTMNSKLLNGSQRVVMDGVISDHECQELQRLTNVAATSGDGYRGQTSPHTPNEKFYGVTVFKALKLGQEGKVPLQSAHLYYNVTEKVRRIMESYFRLDTPLYFSYSHLVCRTAIEEVQAERKDDSHPVHVDNCILNAETLVCVKEPPAYTFRDYSAILYLNGDFDGGNFYFTELDAKTVTAEVQPQCGRAVGFSSGTENPHGVKAVTRGQRCAIALWFTLDPRHSERDRVQADDLVKMLFSPEEMDLSQEQPLDAQQGPPEPAQESLSGSESKPKDEL
B2: PCP complex with mutation W675L of P3H1 (complex)
chain 1: B1 chain with W653L
chain 2: QYERYSFRSFPRDELMPLESAYRHALDKYSGEHWAESVGYLEISLRLHRLLRDSEAFCHRNCSAAPQPEPAAGLASYPELRLFGGLLRRAHCLKRCKQGLPAFRQSQPSREVLADFQRREPYKFLQFAYFKANNLPKAIAAAHTFLLKHPDDEMMKRNMAYYKSLPGAEDYIKDLETKSYESLFIRAVRAYNGENWRTSITDMELALPDFFKAFYECLAACEGSREIKDFKDFYLSIADHYVEVLECKIQCEENLTPVIGGYPVEKFVATMYHYLQFAYYKLNDLKNAAPCAVSYLLFDQNDKVMQQNLVYYQYHRDTWGLSDEHFQPRPEAVQFFNVTTLQKELYDFAKENIMDDDEGEVVEYVDDLLELEETS
chain 3: not shown
B3: human cartilage-associated protein (CRTAP), strep-tagged (natural protein, UniProt O75718 27-401, looked up)
chain: B2 chain 2
B4: human peptidyl-prolyl cis-trans isomerase B (PPIB), flag-tagged (enzyme)
chain: not shown

Legend:
[1] = biological target: B3; assay: cryo-EM structure
SEC = biological target: the molecule itself; assay: SEC
[2] = biological target: B1; assay: cryo-EM structure

Binder: B1
- stoichiometry N [1]: 1

Binder: B2
- binding result (SEC): binds

Binder: B3
- binding result [2]: binds

Binder: B4
- stoichiometry N [1]: 1
- stoichiometry N [2]: 1

— article PMC11381544 (Nature Communications, 2024)
